Measured values from the nanobody polyreactivity screen of Harvey et al. (2022).

Experiment: yeast display, Sf9 membrane polyspecificity reagent, FACS + sequencing; frameworks hold sequencing errors
Summary of the method: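 Galactose-induced (36–48 hours) yeast carrying a synthetic nanobody display library were exposed to 10% biotinylated, detergent-solubilized Sf9 membrane reagent at 4 °C for 1 hour. FACS followed streptavidin microbead enrichment, using low and high (top ~1%) gates for expression (anti-HA) and reagent binding (streptavidin). Colony PCR, MiSeq 2 × 250 sequencing and CDR-length filtering followed. Labels for polyreactivity reflect the gate of origin.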
In the case of “QVQLVESGGGLVQAGGSLRLSCAASGIIFSSNAMGWYRQAPGKERELVAAISRSGGSTYYADSVKARFTISRDNAKKTVYLQMNSLKPEDTAVYDCAAVYRRGHEYDYWRQGTQVTVSS”, the “polyreactivity (PSR sort gate)” value was “high polyreactivity”. With “QVQLVESGGGLVQAGGSLRLSCAASGFTFRRNTMGWYRQEPGKERELVAAITQRGGSTYYADSVKGRFTISRDNAKNTVYLQMNSLKPEDTAVYYCAVERHSYIYKYDYWGQGTQVTVSS” the “polyreactivity (PSR sort gate)” value was “high polyreactivity”. In the case of “QVQLVESGGGLVQAGGSLRLSCAASGFIFRYNAMGLYRQAPGKERELVARINSGVSTNYADSVKGRFTISRDNAKNTVYLQMNSLKPEDTAVYYCNARVRRGYSRFDYWGQGTQVTVSS”, the “polyreactivity (PSR sort gate)” value was “high polyreactivity”. With “QVQLVESGGGLVQAGGRLRLSCAASGSIFHYNAMGWYRQAPGKESELVAAITTSGGSTYYADSVKGRFTISLDNAKNSVYLQMNSLKPEDTAVYYCNVVTRYYTMEYWGQGTQVTVSS” the “polyreactivity (PSR sort gate)” value was “high polyreactivity”. With “QVQLVESGGGLVQAGGSLRLSCAASGSIFSRYAMGWYRTAPGKERELVAAINKSGGSTYYADSVKGRFTISRDNAKNTVYLQMNSLKPEDTAVYYCNAVYYWYKGDYWGQGTQVTVSS” the “polyreactivity (PSR sort gate)” value was “high polyreactivity”. In the case of “QVQLVESGGGLVQAGGSLRLSCAASGLTFQYNAMGWYRQAPGKERELVASINSGGSTDYADSVKGRFTISRDNAKNTVYLQMNRLKQEDTAVYYCATSGYWYSASYGYEYWGQGTQVTLSS”, the “polyreactivity (PSR sort gate)” value was “low polyreactivity”. With “QVQLVESGGGLVQAGGSLRLSCAASGITFHGYAMGWYRQAPGTERELVAAISDSGSSTYYADSVKGRFTISRDNAKNTVYLQMNSLKPEDTAVYYCAAVSGFYDQYDYWGQGTQVTVSS” the “polyreactivity (PSR sort gate)” value was “low polyreactivity”. With “QVQLVESGGGLVQAGGSLRLSCAASGRTFYTNAMGRYRQAPGKERELVAAISRGGGRTYYADSVKGRFTISRDNAKNTVYLQMNSLKPEDTAVYYCAASPYQGQGREYYYWGQGTQVTVSS” the “polyreactivity (PSR sort gate)” value was “high polyreactivity”. In the case of “QVQLVESGGGLVQAGGSLRLSCAASGSTFYVYAMGWYRQAPGKERELVAAIDDSGDRTYYADSVKGRFTISRDNAKNTVYLQMNSLKPEDTAVYYCAAEYDSWEYDYWGQGTQVTVSS”, the “polyreactivity (PSR sort gate)” value was “low polyreactivity”. In the case of “QVQRVESGGGLVQAGGSLRLSCAASGYTSQVKDMGWYRQAPGKERELVAAISSTGDRTYYADSVKGRFTISRDNAKNTVYLQMNSLKPEDTAVYYCNADLTSYYEEDERNDDDYWGQGTQVTVSS”, the “polyreactivity (PSR sort gate)” value was “low polyreactivity”. For “QVQLVESGGGLVQAGGSLRLSCAASGFTFRAYAMGWYRQAPGKERELVATITRSGGSTFYADSVKGRFTISRDNAKNTVYLQMNSLKPEDTAVYYCAAVYRFPCRYAWYKYDDWGQGTQVTVSS”, the “polyreactivity (PSR sort gate)” value was “high polyreactivity”. For “QVQLVESGGRLVQSGGSLRLSCAASGSIFVWNAMGWYRQAPGKERELVAAISYDGGSTYYADSVKGRFTISRDNAKNTVYLQMNSLKPEDTAVYYCAFEYVYWLSWYFQYDYWGQGTQVTVSS”, the “polyreactivity (PSR sort gate)” value was “low polyreactivity”. In the case of “QVQLVESGGGLVQAGGSLRLSCAASGSTFEDYTLGGYRQATGKERELVAAINWDGSRTYYADSVKGRFTISRDNAKNTVYLQMNSLKPEDTAVYDCAAHSAYHRRRMYYWGQGTQVTVSS”, the “polyreactivity (PSR sort gate)” value was “high polyreactivity”. In the case of “QVQLVESGGGLVQAGGSLRLSCAASGYTFTIYAMGWYRQAPGKQRELVAAITGRGGRTNYADSVKGRFTISRDNAKNTVYLQMNSLKPEDTAVYYCNAVTKVVYHGPYGYDYWGQGTQVTVSS”, the “polyreactivity (PSR sort gate)” value was “high polyreactivity”. In the case of “QVQLVESGGGLVQAGGSLRLSCAASGLTFGGNAMGWYRQAPGKERELVAGISSSGNTNYADSVKGRFTISRDNAKNTVYLQMNSLKPEDTAVYYCAADENITYPVYDMYYWGQGTQVTVSS”, the “polyreactivity (PSR sort gate)” value was “low polyreactivity”. For “QVQLVESGGGLVQAGGSLRLICAAYGSTFVTNVMGWYRQAPGKERELVAAISARGGSTYYADSVKGRFTISRDNAKNTVYLQMNSLKPEDTAVYYCNAVVRPWQSYYYWGQGTQVTVSS”, the “polyreactivity (PSR sort gate)” value was “high polyreactivity”. For “QGQLVDSGGGLVQAGGSLRLSCAASGSIVRPNAMGWYRPAPGKEREFVAAITSSSGPTYYADSVKGRFTISRDNAKNTVYLQMNSLKPEDTAVYYCAAKYTSRSYKYDYWGHGTQVTVSS”, the “polyreactivity (PSR sort gate)” value was “high polyreactivity”. In the case of “QVQLVESGGGLVQAGGSLRLSCAASGLTFYYYAMGWYRQAPGKERELVAAISRSGGSTYYADSVKGRFTISRDNAKNTVYLQMNSLKPEDTAVYYCAAYGPASVYEVAMDYWGQGTQVTVSS”, the “polyreactivity (PSR sort gate)” value was “high polyreactivity”. For “QVQLVESGGGLVQAGGSLRLSCAASGRIFSINTMGWYRQAPGKERELVAAISVSGGRTYYADSVKGRFTISRENAKKSVYVQMNSLKPEVTAGYYCGAYGTTRMDYWGQGTQVTVSS”, the “polyreactivity (PSR sort gate)” value was “high polyreactivity”. In the case of “QVQLVESGVRLVQAGGSLRLSCAASGSIFAKYTMGWYRPAPGKERELVAAITRSGTSTRYADSVKGRFTISRDNAKNTVYLQLNSLKPEDTAVYYCAASLYSWGQGTQVTVSS”, the “polyreactivity (PSR sort gate)” value was “high polyreactivity”. With “QDQLVESGRGIFKAGGSLRLSCAASGSIFGDNAMGWSRHAPGKDRELVAAISSGGPTYADSVKGRFTISRDNAKNTVYLQMNSLKAEDSAVYFCNATDGINPYDLTDFEFDYWGQGTEVTVSS” the “polyreactivity (PSR sort gate)” value was “low polyreactivity”. With “QVQLVESVGGLVQAGGSLRLSCAATGFILAPYAMGWYRQSPGKETELVAAITRSGGITYYADSVKGRFTISRDNAKNTVYLQMNSLKPEDTAVYYCAARNYRYRYARAYDYWGQGTQVTVSS” the “polyreactivity (PSR sort gate)” value was “high polyreactivity”. In the case of “QDQLVESGGGLVQAGGSLRLSCAASGRIFRRNTQGWSRQAPGKERELVAAITSSGGSTFADSVKGRFTISRDNAKNTVYLQMNSLKPEDTAVYYCATYVAYHRGYRTYDHWGQGTQVTVSS”, the “polyreactivity (PSR sort gate)” value was “low polyreactivity”. In the case of “QVQLQESGGGLVQAGGSLSLRCSASRNITRSSDLGWYHQAPGKEREFVASITSGGTTYYADSVKGRFTISRDNAKNTVYLEMNSLKPEDTAVYYCAVGDQADAEFGYWGQGTQVTVSS”, the “polyreactivity (PSR sort gate)” value was “low polyreactivity”. In the case of “QVQLVESGGGLVQAGGSLRLSCAASGFIFRYYGMGWYRQAPGKERELVAAITDGGSTTYADSVKGRFTISRDNAKNTVYLQMNSLKPEDTAVYYCNAEAGGFDYYGKTYRYGDYWGQGTQVTVSS”, the “polyreactivity (PSR sort gate)” value was “low polyreactivity”. For “QVQLVESGGGLVQAGGSLRLSCAASGIIFSGYAMGWYRQAPGKERELVASIRSGSNTYYADSVKGRFRISRDNAKNTVYLQMNSLKPEDTAVYYCAARVVPATFRFIRYPHPYYYWGQGTQVTVSS”, the “polyreactivity (PSR sort gate)” value was “low polyreactivity”. In the case of “QVQLVESGGGLVQAGGSLRLSCAASGFIFPAYAMGWYRQAPGKERELVAGITSRGGSTYYADSVKGRFTISRDNAKNTVYLQMNSLKPEDTAVYYCAKPYHWPWTRFDYWGQGTQVTVSS”, the “polyreactivity (PSR sort gate)” value was “low polyreactivity”. For “QVQLVESGGGLVQAGGSLRLSCAASGRIFPYYAMGWYRQAPGKERELVATISTAGSTNYADSVKGRFTISRDNAKNTVYLQMNSMKPEDTAVYYCATRNTWYHRGYDFWGLGTQVTVSS”, the “polyreactivity (PSR sort gate)” value was “low polyreactivity”. In the case of “QVQLVESGGGLVQAGGSLRLSCAASGLIFPVYVMGWYRQAPGKEREFVAAITWSTSTYYADSVKGRFTISRDNAKNTVYLQMNSLKPEDTAVYYCNARRGWYSPIYYYWGQGTQVTVSS”, the “polyreactivity (PSR sort gate)” value was “high polyreactivity”. In the case of “QVQLVESGGGLVQAGGSLRLSCAASGFTFSSYVMGWYRQAPGKERELVAAISGSGGSTYYADSVKGRFTISRDNAKNTVYLQMNSLKPEDTAVYYCAAVRRVGPTSYYYWGQGTQVTVSS”, the “polyreactivity (PSR sort gate)” value was “high polyreactivity”. With “QVQLVESGGGLFQAGGRLLLSCAASGRIFTYNTRGWYRQAPGKEREFVAAISSSSVSTYYADSVKGRITISRDNAKYTVYLQMNCLKPEDTAVYYCAAKRVGYHIGYVYPYGYWGQGTQVTVSS” the “polyreactivity (PSR sort gate)” value was “high polyreactivity”. With “QVQLVESRGGLVQAGGSLRLSCAASGFTFGNYAMGWYRQAPGKEREMVAAISWSGGSTYNADSVKGRFTISRDNAKKTVYLQMNSLKPEDTAVYYCNAIRGSLWESDYWGQGTQVTVSS” the “polyreactivity (PSR sort gate)” value was “high polyreactivity”. In the case of “QVQLVESGGGLVQAGGSLRLSCAASGSTLSRYVMGWSRHAPGKERELVASISWSGTRTYYADSVKGRFTISRDNAKNTVYLQMNSLIPEDTAVYYCNAVSRGGRLYDYWGQGTQVTVSS”, the “polyreactivity (PSR sort gate)” value was “high polyreactivity”. With “QVQLVESVGGLVQAGGSLRLSCDASGGIFWVYAMGWYRQAPGKERELVAAISNSDTSTSYADSVKGRFTISRDNAKNTVYLQMNSLKPEDTAVYYCNADSPSLSGDYWGQGTQVTVSS” the “polyreactivity (PSR sort gate)” value was “low polyreactivity”. In the case of “QDQLVESGGGLVQAGGSLRLICAASGRTFYPYVMGWYRQAPGKERDLVAAITDSGGNTYYADSVKGRFTISRDNAKNTVYLQMNSLKPEDTAVYYCNARFYYPSRRGTFQYNYWGQGTQVTVSS”, the “polyreactivity (PSR sort gate)” value was “low polyreactivity”. With “QVQIEESGGRLVQAGGILRLSCAASGRPFNVNFKGWNRQAPGKEWELVAAIRYTGGSTYADSVKGRFTISRDNAKNTVYLQMNSLKPEDTAVYYCNADTVFPFDHGMDYWGQGTQVTVSS” the “polyreactivity (PSR sort gate)” value was “low polyreactivity”. In the case of “QVQLVESGGGLVQAGGSLRLTCAASGYTFGKYAMGWYREAPGKERELVATIRSGGSTNYADSLKGRFTISRDNAKNTVYLQMNSLKPEDTAVYYCNKRYRYEYGYDYWGQGTLVTVSS”, the “polyreactivity (PSR sort gate)” value was “high polyreactivity”. With “QFQLEESGGGLVQAGGSLRLSCAASGSTFGDYAMGWYRQAPGKERVLVAAINFSDGSTYYADSVKGRFTISRDNAKNTVYLQMNSLKPEDSAVYYCAKQGYLVWSGWRWYDYWGQGTQGTVSS” the “polyreactivity (PSR sort gate)” value was “low polyreactivity”. With “QVQLVESGGGLVKAGGSLRLSFAASGSIFEPYVMGWYRQAPGKQRELVAAISESGDTTYYADSVKGRFTISRDNAKTTVYLKMNSLKPEDTAVYDCNAEDPSIYGWWRVGEYDYWGQGTQVTVSS” the “polyreactivity (PSR sort gate)” value was “low polyreactivity”. In the case of “QVQLVESGGGLVQAGGSLRLSCAASGSILGHYAMGWYRQAPGTERELVAAISRGGSTTYYADSVKGRFTISRDNAKNTVYFQMNSLKPEDTAVYYCAARSASKMDYWGQGTQVNVSS”, the “polyreactivity (PSR sort gate)” value was “high polyreactivity”. With “QVQLVESGVGLVQAGGSLRLSCAASGYTLDNYAMGWYRQAPGKERELVAGITFSGGSTFYADSVKGRFTISRDNAKNTVYLQMNSLKPEDTAVYYCAADAEFQADHKYGYWGQGTQVTVSS” the “polyreactivity (PSR sort gate)” value was “low polyreactivity”. For “QVQLVESGGGLVQAGGSLRLSCAASGSTFQTYAMGWYRQAPGKERELVAAISFNGGSTYYADSVKGRFTISRDNAKNTVYLQMNSLKPEDTAVYYCAVEYTWASALYDGRHDYWGQGTQVTVSS”, the “polyreactivity (PSR sort gate)” value was “high polyreactivity”. In the case of “QVQLVESGGGLVQAGGSLRLSCAASGSIVAGNAMGWYIQAPGKEREMVAAITWRSGRTYYADSVKGRFTISRDNAKNTVNLQMNSLKPVDTAVYYCARGRYGYTAPVRRWYFRYDYWGQGTQVTVSS”, the “polyreactivity (PSR sort gate)” value was “high polyreactivity”.
